The text below walks through data of article PMC3175028 (2011).

One may read the Km as the substrate concentration at which the rate is half of its maximum. In general, Ki refers to a measure of affinity in units of concentration, obtained from inhibition or displacement. Read a high Ki as lower affinity. As usually defined, the kcat is the number of substrate molecules converted per active site and unit of time at saturation. A word on the kcat/Km: it is the second-order rate constant that governs catalysis at low substrate concentration.

Series [1] concerns the target T1, hedKR (Streptomyces griseoruber, UniProt Q67G28). Description: steady-state kinetics of reduction. The format is biochemical.
Series [2] has as its target T1, hedKR. Description: […] Å co-crystal structure. The format is binding.
In series [3] the target is T1, hedKR. The series can be described thus: steady-state inhibition kinetics of trans-1-decalone reduction. In kind it is biochemical.
A further series has as its system O[C@H]1CCCc2ccccc21. Description: steady-state kinetics of oxidation, A340. In kind it is biochemical, Streptomyces griseoruber. As to conditions: NADP+.

With `O=C1CCC[C@H]2CCCC[C@H]12` (relative stereo) [trans-1-decalone], the Km at hedKR [1] came to 591 ± 147 µM.

Consider `NC(=O)C1=CN([C@@H]2O[C@H](COP(=O)(O)OP(=O)(O)OC[C@H]3O[C@@H](n4cnc5c(N)ncnc54)[C@H](OP(=O)(O)O)[C@@H]3O)[C@@H](O)[C@H]2O)C=CC1` [NADPH], for which the “2.4 Å co-crystal structure” value at hedKR [2] is given as “There is clear electron density for NADPH in each monomer of the crystal structure”.

`O=c1c(O)c(-c2ccc(O)c(O)c2)oc2cc(O)cc(O)c12` [compound 22, quercetin] yielded a Ki at hedKR [3] of about 114 µM.

With hedKR (Streptomyces griseoruber; N92L), in the series on O[C@H]1CCCc2ccccc21, the Km stood at 4320 ± 521 µM, the kcat turned out to be 0.169 ± 0.00653 s⁻¹ and the kcat/Km is 39.1 ± 4.96 M⁻¹ s⁻¹.

As for hedKR (Streptomyces griseoruber; N92P), in the series with O[C@H]1CCCc2ccccc21, the Km was determined as 14100 ± 1360 µM, the catalytic constant (kcat) was found to be 0.0323 ± 0.00166 s⁻¹ and the kcat/Km was 2.29 ± 0.249 M⁻¹ s⁻¹.
